This test addresses T1, Valosin-Containing Protein phosphorylated at Ser784 (pSer^784-VCP), endogenous, from genotoxin-treated human … (human, UniProt P55072 2-806, phosphoserine at 784).
T1 construct: Endogenous protein in lysates or fixed cells (HeLa, MDA-MB-231, U2OS and others) after SN38, etoposide or HU; it is tied to the assayed protein only through that definition; also called DNA-damage-induced ~100-kDa protein
In words: co-IP, western blot (FIG. 15B, 14B). The protocol: Antibody-bound proteins were analyzed by Western blot for K48-ubiquitin, total VCP and pSer784-VCP. Same amount of control IgG was used to bind the etoposide-treated HeLa samples to control for non-specific binding. […] Samples were analyzed by Western blot for K48-ubiquitin, NPL4, and UFD1. Total VCP bound by the antibodies were visualized by silver staining. […] YFP-FLAG was expressed as a control.
Ser784 Phosphorylation Decreases VCP Association with NPL4/UFD1 and Polyubiquitinated Proteins: To study the regulatory mechanism of Ser784 phosphorylation, the effects on the VCP interaction with protein substrates were first examined. Total VCP (by a pan-VCP antibody) or pSer784-VCP (by 3E4) from etoposide or HU-treated HeLa cell lysates were immunoprecipitated and immunoblotted for co-absorbed K48-polyubiquitinated proteins. […] To better separate pSer784-VCP from unphosphorylated VCP, sequential pull-downs were performed from etoposide-treated HeLa cell lysates to first deplete pSer784-VCP using 3E4 and subsequently capture the remaining unphosphorylated VCP by the pan-antibody. […] Based on the levels of VCP in the input and supernatants after each pull-down, it is evident that Ser784 is phosphorylated at high stoichiometry in response to DNA damage (>50% of total VCP after overnight etoposide treatment) (FIG. 15A).
In general terms: In western blotting, separated proteins are transferred to a membrane and probed.

T1 sequence (P55072 2-806 limits assumed): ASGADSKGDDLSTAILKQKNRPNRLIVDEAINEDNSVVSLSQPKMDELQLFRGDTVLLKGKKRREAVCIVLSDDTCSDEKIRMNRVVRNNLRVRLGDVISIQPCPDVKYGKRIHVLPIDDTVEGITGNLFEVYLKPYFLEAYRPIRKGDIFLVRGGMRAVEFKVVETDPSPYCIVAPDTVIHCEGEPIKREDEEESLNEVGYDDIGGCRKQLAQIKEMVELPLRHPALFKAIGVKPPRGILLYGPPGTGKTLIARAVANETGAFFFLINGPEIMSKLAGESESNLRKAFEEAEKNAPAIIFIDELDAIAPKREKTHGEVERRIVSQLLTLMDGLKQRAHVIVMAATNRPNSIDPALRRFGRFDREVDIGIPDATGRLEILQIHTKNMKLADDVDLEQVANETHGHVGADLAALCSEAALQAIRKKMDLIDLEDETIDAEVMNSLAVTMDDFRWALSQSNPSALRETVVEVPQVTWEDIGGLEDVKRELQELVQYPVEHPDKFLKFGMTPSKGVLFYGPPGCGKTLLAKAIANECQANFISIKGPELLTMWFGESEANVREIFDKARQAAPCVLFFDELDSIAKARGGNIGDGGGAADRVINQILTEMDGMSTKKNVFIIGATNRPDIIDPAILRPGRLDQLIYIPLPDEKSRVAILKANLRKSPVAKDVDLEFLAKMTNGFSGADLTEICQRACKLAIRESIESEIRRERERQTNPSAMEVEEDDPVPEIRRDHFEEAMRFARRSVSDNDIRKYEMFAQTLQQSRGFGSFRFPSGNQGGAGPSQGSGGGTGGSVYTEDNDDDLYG

B1: NPL4 (other, UniProt Q8TAT6 2-608, looked up)
chain: AESIIIRVQSPDGVKRITATKRETAATFLKKVAKEFGFQNNGFSVYINRNKTGEITASSNKSLNLLKIKHGDLLFLFPSSLAGPSSEMETSVPPGFKVFGAPNVVEDEIDQYLSKQDGKIYRSRDPQLCRHGPLGKCVHCVPLEPFDEDYLNHLEPPVKHMSFHAYIRKLTGGADKGKFVALENISCKIKSGCEGHLPWPNGICTKCQPSAITLNRQKYRHVDNIMFENHTVADRFLDFWRKTGNQHFGYLYGRYTEHKDIPLGIRAEVAAIYEPPQIGTQNSLELLEDPKAEVVDEIAAKLGLRKVGWIFTDLVSEDTRKGTVRYSRNKDTYFLSSEECITAGDFQNKHPNMCRLSPDGHFGSKFVTAVATGGPDNQVHFEGYQVSNQCMALVRDECLLPCKDAPELGYAKESSSEQYVPDVFYKDVDKFGNEITQLARPLPVEYLIIDITTTFPKDPVYTFSISQNPFPIENRDVLGETQDFHSLATYLSQNTSSVFLDTISDFHLLLFLVTNEVMPLQDSISLLLEAVRTRNEELAQTWKRSEQWATIEQLCSTVGGQLPGLHEYGAVGGSTHTATAAMWACQHCTFMNQPGTGHCEMCSLPRT
notes: Detected by western blot in VCP co-immunoprecipitates; also called cofactor NPL4
As for B1, the binding result was “binds”.

Source of the values: patent publication US20230190752A1 (WASHINGTON UNIVERSITY, published 2023).
